In article PMC13480645:
pKd: −log10 of the molar value.

Biological target: MERS-CoV S2 stem helix peptide (MERS-CoV)
Experiment: BLI

S2P6 (antibody), sequence (VH): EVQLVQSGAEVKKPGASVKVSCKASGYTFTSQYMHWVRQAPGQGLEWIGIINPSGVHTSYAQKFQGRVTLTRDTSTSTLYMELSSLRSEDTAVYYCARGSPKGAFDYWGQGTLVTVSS
S2P6 (antibody), sequence (VL): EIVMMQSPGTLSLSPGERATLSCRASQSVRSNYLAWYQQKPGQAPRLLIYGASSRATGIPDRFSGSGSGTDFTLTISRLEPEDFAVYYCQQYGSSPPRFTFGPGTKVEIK

S2P6 (antibody)
pKd: 9.14
kon: 315000 M⁻¹ s⁻¹
